The values below come from patent publication US20170119874A1.

This experiment concerns the target cellular receptor used by the virus to infect target cells (ARPE 19 epithelial cells). Description: cell-based or functional assay.

“soluble HCMV pentameric complex (gH, gL, pUL128, pUL130, pUL131), purified, tag-free, produced in CHO-K1SV cells (from UniProt P12824 26-713; Q68672 32-278; P16837 23-171; F5HCP3 28-213; F5HET4 19-129)” yielded an IC50, inhibition of HCMV infection of ARPE 19 epithelial cells (complex pre-incubated with the target cells) of 1.9 nM.
